# Experimental data as given in patent publication US20250361288A1 (Gilead, published 2025).
# Substitutions are numbered along the chain they refer to. Names and notes keep the numbering of the source.
# T1: mouse HVEM extracellular domain fused with an Fc fragment at the C-terminus (mouse, UniProt Q80WM9 39-206, limits assumed)
# T1 construct: extracellular domain; Bought; also called mHVEM; not shown: Fc fragment at the C-terminus
# T1 sequence (looked up): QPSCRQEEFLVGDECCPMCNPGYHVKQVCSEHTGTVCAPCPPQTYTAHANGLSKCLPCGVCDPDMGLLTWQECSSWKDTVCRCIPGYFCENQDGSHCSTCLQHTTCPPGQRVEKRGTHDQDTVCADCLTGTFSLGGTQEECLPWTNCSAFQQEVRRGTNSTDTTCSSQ
# T2: human HVEM extracellular domain fused with an Fc fragment at the C-terminus (human, UniProt Q92956 39-202)
# T2 construct: extracellular domain; Bought; also called hHVEM; not shown: Fc fragment at the C-terminus
# T2 sequence (looked up): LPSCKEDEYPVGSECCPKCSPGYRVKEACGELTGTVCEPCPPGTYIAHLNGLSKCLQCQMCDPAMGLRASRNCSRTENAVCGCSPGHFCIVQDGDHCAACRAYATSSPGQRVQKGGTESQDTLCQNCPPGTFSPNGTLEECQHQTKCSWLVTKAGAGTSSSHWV
# B1: LIGHT-23 (ligand)
# chain: DGPAGSWEQLIQERRSHEVNPAAHLTGANSSLTGSGGPLLWETQLGLAFLRGLSYHDGALVVTKAGYYYIYSKVQLGGVGCPLGLAGTITHGLYKRTPRYPEELELLVSQQSPCGRATSSSRVWWDSSFLGGVVHLEAGEKVVVRVSDERLVRLRDGTRSYFGAFMV
# notes: Printed mutations: S160G, L220S; Soluble protein carries an N-terminal His tag
# B2: LIGHT-24 (ligand)
# chain: B1 chain with A117T
# notes: Printed mutations: S160G, A190T, L220S; Soluble protein carries an N-terminal His tag
# B3: LIGHT-25 (ligand)
# chain: B1 chain with G87H
# notes: Printed mutations: S160H, L220S; Soluble protein carries an N-terminal His tag
# B4: LIGHT-26 (ligand)
# chain: B1 chain with G87H, E149Q
# notes: Printed mutations: S160H, L220S, E222Q; Soluble protein carries an N-terminal His tag
# B5: LIGHT-27 (ligand)
# chain: B1 chain with G87N, T88S, E149D
# notes: Printed mutations: S160N, T161S, L220S, E222D; Soluble protein carries an N-terminal His tag
# B6: LIGHT-28 (ligand)
# chain: B1 chain with G87N, K141E, S147L, L154M
# notes: Printed mutations: S160N, K214E, L227M; Soluble protein carries an N-terminal His tag
# B7: LIGHT-29 (ligand)
# chain: B1 chain with G87N
# notes: Printed mutations: S160N, L220S; Soluble protein carries an N-terminal His tag
# B8: LIGHT-31 (ligand)
# chain: B1 chain with G87R, T88S
# notes: Printed mutations: S160R, T161S, L220S; Soluble protein carries an N-terminal His tag
# B9: LIGHT-34 (ligand)
# chain: B1 chain with G87S, T88S
# notes: Printed mutations: T161S, L220S; Soluble protein carries an N-terminal His tag
# B10: LIGHT-35 (ligand)
# chain: B1 chain with G87S, T88S, E149N
# notes: Printed mutations: T161S, L220S, E222N; Soluble protein carries an N-terminal His tag
# B11: LIGHT-36 (ligand)
# chain: B1 chain with G87S, H135Y, S147L
# notes: Printed mutations: H208Y; Soluble protein carries an N-terminal His tag
# B12: LIGHT-37 (ligand)
# chain: B1 chain with G87S, A117T, F129Y, K141E, S147L
# notes: Printed mutations: A190T, F202Y, K214E; Soluble protein carries an N-terminal His tag
# B13: LIGHT-39 (ligand)
# chain: B1 chain with L85P, G87S, L93M, S147M
# notes: Printed mutations: L158P, L166M, L220M; Soluble protein carries an N-terminal His tag
# B14: LIGHT-42 (ligand)
# chain: B1 chain with G77R, G87S
# notes: Printed mutations: G150R, L220S; Soluble protein carries an N-terminal His tag
# Biological target: T1, mouse HVEM extracellular domain fused …
# Assay: phage ELISA
# How it was run: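 Supernatants from fourth-round clones rescued with helper phage were applied to plates coated with 1 μg/ml target for 1 h at room temperature. Bound phage detected with HRP anti-M13 and TMB at OD450; clones were called positive when the target/BSA ratio was >3.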
row,Binder,binding result
1,B1,binds
2,B2,binds
3,B3,binds
4,B4,binds
5,B5,binds
6,B6,binds
7,B7,binds
8,B8,binds
9,B9,binds
10,B10,binds
11,B11,binds
12,B12,binds
13,B13,binds
14,B14,binds

# Biological target: T2, human HVEM extracellular domain fused …
# Assay: ELISA on coated target-Fc
# Protocol: (§1) Nunc MaxiSorp 96-well plates (Thermofisher) were coated with target proteins (1 μg/ml), and then blocked with 2% BSA-PBS buffer for one hour. Serial dilutions of the LIGHT muteins were added with a maximum concentration of 200 ng/ml. The plates were incubated for one hour, washed four times with PBST, and then incubated with mouse anti-His tag antibody (#105327, Sino Biological) for 1 hour. The plates were further incubated with HRP-conjugated goat anti-mouse secondary antibody (#SSA006, Sino Biological) before being washed three times with PBST and treated with TMB substrate (#34029, ThermoFisher). The plates were read at 450 nm on a SpectraMax M5 microplate reader (Molecule Devices). The ELISA results were analyzed using GraphPad Prism 9.0 software and the EC50s (half maximal effective concentration) were summarized in Table 5-1 and Table 5-2.
row,Binder,EC50 [µg/mL]
1,B1,0.0588
2,B2,0.0632
3,B3,0.0542
4,B4,0.0484
5,B5,0.0504
6,B6,0.0873
7,B7,0.0428
8,B8,0.051
9,B9,0.0202
10,B10,0.0416
11,B11,0.137
12,B12,0.037
13,B13,0.049
14,B14,0.0814

# Biological target: T3, mouse LTβR extracellular domain fused with an Fc fragment at the C-terminus (mouse, UniProt P50284 31-223)
# T3 construct: extracellular domain; Bought; also called mLTβR; not shown: Fc fragment at the C-terminus
# Assay: ELISA on coated target-Fc
# Protocol: as §1
# T3 sequence (P50284 31-223): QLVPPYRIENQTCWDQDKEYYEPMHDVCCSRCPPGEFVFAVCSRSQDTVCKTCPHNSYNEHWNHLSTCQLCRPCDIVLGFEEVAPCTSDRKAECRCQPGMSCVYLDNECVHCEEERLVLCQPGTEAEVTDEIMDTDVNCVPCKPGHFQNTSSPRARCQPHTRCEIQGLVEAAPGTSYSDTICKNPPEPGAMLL
Binder,EC50 [µg/mL],binding result
B1,0.0916,
B2,,binds
B3,0.0323,
B4,0.0483,
B5,0.0642,
B6,0.256,
B7,0.0209,
B8,0.0747,
B9,0.0446,
B10,0.0383,
B11,0.27,
B12,0.0678,
B13,0.0239,
B14,0.025,

# Biological target: T4, human LTβR extracellular domain fused with an Fc fragment at the C-terminus (human, UniProt P36941 31-227)
# T4 construct: extracellular domain; Bought; also called hLTβR; not shown: Fc fragment at the C-terminus
# Assay: ELISA on coated target-Fc
# Protocol: as §1
# T4 sequence (P36941 31-227): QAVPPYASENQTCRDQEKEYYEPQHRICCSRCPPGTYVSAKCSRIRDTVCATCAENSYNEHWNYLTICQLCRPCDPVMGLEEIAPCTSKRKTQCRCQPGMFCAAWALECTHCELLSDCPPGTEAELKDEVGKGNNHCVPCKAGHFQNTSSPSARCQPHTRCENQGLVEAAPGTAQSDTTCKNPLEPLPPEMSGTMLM
Binder,EC50 [µg/mL],binding result
B1,0.0892,
B2,,binds
B3,,binds
B4,0.0727,
B5,0.0827,
B6,0.0811,
B7,0.0452,
B8,0.0867,
B9,0.059,
B10,0.0703,
B11,0.19,
B12,0.0434,
B13,0.0542,
B14,0.0639,
